Several values for one entry are separate records, joined by “and”; a condition that tells them apart may be missing. Equal values may be shown once.

B1: mouse anti-human LAG3 antibody LB148.4A10.1H1 (antibody, mouse IgG2a, V domains shown)
VH: EVQLLQSGAELVRSGASVKLSCTASGFNIEDYYMHWMKQRPEQGLEWIGWIDPVNGDTEYAPKFQGKATMTADTSSNTAYLHLNSLTSEDTAVYYCNFYDGYLFAFWGQGTLVTVSA
VL: DIVLTQAAPSVPVTPGESVSISCRSSKSLLHSDGNTYLYWLLQRPGQSPQLLIYRMSNLASGVPDRFSGSGSGTVFTLRISRLEAEDVGIYYCMQHLEYPFTFGGGTKLEIK
notes: also called Lag3 clone 4A10
B2: mouse anti-human LAG3 antibody LB148.11C9.1C1 (antibody, mouse IgG1, V domains shown)
VH: QVQLQQPGAELVMPGASAKMSCKASGYTLTDYWMHWVKQRPGQGLEWIGAIDISDSYSSYNQKFKGKATLTVDESSSTAYMQLTSLTSEDSAVYYCARSPFYNSRGGNYFDYWGQGTTLTVSS
VL: DIQMTQTTSSLSASLGDRVTISCRASQDISNYLNWYQQKPDGTVKLLIYYTSRLHSGVPSRFSGSGSGTDYSLTISNLEQEDIATYFCQQGDTLPPWTFGGGTKLEIK
notes: also called Lag3 clone 11C9
B3: mouse anti-human LAG3 antibody LB148.19E8.G1.1A1 (antibody, mouse IgG2b, V domains shown)
VH: QIRLQQSGPELVKPGASVKISCKASGSSFTDYYINWVKQKPGQGLEWIGWIYPGSGNSIYNENFKAKATLTVDTSSSTAYMHLSSLTSEDTAVYFCAREADYDDALDYWGQGTSVTVSS
VL: HILLTQSPAILSVSPGERVSFSCRASQSIGTSIHWYQQRTNGSPRLLIKYASESISGIPSRFSGSGSGTDFTLSINSVESEDIADYYCQQSNSWPTYTFGGGTKLEIK
notes: also called Lag3 clone 19E8
B4: mouse anti-human LAG3 antibody LB145.22D2.E1.1D1 (antibody, mouse IgG2a, V domains shown)
VH: EVLLLQSGPELVKPGTSVKIPCKASGYTFTDYNVDWVKQRHGKGLEWIGDINPNNGGTIYSQKFKGKATLTVDKSSSTAFMELRSLTSEDTAVYFCARNYRWFGAMDHWGQGTSVTVSS
VL: DIVLTQSPASLAVSPGQRATISCKASQSLDYEGDSDMNWYQQKPGQPPRLLISGASNLESGIPARFSGSGSGTDFTVNIHPVEEEDAATYYCQQSTEDPRTFGGGTKLEIK
notes: also called Lag3 clone 22D2; LB145.22D2.E1.D1
B5: Ab5: humanized light chain 45AGX Humanized x[LAG3_H] mAb (LB145.22D2.E1.D1 (VL3)) Kappa (PX) and humanized heavy chain 57AHH Humanized x[LAG3_H] mAb … (antibody)
heavy: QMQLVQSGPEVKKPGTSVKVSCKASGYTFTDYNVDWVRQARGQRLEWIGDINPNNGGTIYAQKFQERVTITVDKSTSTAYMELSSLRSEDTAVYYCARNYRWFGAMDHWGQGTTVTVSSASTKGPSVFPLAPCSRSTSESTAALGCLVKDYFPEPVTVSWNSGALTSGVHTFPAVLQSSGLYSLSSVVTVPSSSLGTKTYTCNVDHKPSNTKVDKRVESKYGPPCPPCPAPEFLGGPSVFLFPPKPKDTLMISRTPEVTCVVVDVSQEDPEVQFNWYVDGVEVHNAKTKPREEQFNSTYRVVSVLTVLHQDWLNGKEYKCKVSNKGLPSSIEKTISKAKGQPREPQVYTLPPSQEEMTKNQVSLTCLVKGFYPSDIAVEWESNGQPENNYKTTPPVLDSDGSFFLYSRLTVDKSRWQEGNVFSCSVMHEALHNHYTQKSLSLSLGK
light: DIVMTQTPLSLSVTPGQPASISCKASQSLDYEGDSDMNWYLQKPGQPPQLLIYGASNLESGVPDRFSGSGSGTDFTLKISRVEAEDVGVYYCQQSTEDPRTFGGGTKVEIKRTVAAPSVFIFPPSDEQLKSGTASVVCLLNNFYPREAKVQWKVDNALQSGNSQESVTEQDSKDSTYSLSSTLTLSKADYEKHKVYACEVTHQGLSSPVTKSFNRGEC
notes: Humanized 22D2, IgG4 S228P/kappa; also called Hu22D2 VH6/VL3 (Ab 5); hu22D2 VH6/VL3
B6: 22D2 chimera: chimeric antibody [LAG3_H] mAb (LB145.22D2.E1.D1 (VH0/VL0) Geneart) IgG4 S228P/kappa (PX) (antibody, V domains shown)
VH: B4 VH
VL: B4 VL
notes: It is described as the parental LB145.22D2.E1.D1 VH0/VL0 on human IgG4 with the hinge-stabilizing S228P mutation and kappa; also called Chimeric 22D2; chimeric 22D2

One experiment has as its target T1, human LAG3 (Lymphocyte Activation Gene-3) expressed on cells (human, UniProt P18627 23-525).
T1 sequence: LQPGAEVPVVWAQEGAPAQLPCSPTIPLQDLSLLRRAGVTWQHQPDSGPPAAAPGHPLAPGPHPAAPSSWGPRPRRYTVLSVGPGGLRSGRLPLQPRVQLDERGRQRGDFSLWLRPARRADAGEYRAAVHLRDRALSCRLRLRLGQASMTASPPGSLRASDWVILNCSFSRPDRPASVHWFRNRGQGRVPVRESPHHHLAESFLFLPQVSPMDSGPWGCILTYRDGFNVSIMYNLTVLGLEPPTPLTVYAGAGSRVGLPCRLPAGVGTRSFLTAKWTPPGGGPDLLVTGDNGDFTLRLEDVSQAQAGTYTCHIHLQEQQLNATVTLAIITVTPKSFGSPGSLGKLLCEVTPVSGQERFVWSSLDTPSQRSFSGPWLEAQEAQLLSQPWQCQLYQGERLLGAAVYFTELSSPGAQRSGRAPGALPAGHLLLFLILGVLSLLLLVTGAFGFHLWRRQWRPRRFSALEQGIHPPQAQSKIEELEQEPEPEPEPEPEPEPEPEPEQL
Nature of the experiment: cell-based or functional assay.
Regarding B1, the “EC50 for IL-2 rescue, hLAG3-3A9 T cell system” value (“EC50 for IL-2 rescue” for short) was 2.83 nM and 2.96 nM.
B2: the “EC50 for IL-2 rescue” value was 3.56 nM and 4.06 nM.
For the molecule B3, the “EC50 for IL-2 rescue” value was 1.74 nM and 1.83 nM.
Regarding B4, the “EC50 for IL-2 rescue” value was 1.06 nM and 1.65 nM.

A further experiment concerns the target T2, human LAG3-huFc recombinant protein (human, UniProt P18627 23-450, limits assumed, biotinylated in the runs with humanized and chimeric antibodies (Example 11)).
T2 construct: also called human LAG3-Fc; huLAG3-huFc; not shown: human Fc
T2 sequence: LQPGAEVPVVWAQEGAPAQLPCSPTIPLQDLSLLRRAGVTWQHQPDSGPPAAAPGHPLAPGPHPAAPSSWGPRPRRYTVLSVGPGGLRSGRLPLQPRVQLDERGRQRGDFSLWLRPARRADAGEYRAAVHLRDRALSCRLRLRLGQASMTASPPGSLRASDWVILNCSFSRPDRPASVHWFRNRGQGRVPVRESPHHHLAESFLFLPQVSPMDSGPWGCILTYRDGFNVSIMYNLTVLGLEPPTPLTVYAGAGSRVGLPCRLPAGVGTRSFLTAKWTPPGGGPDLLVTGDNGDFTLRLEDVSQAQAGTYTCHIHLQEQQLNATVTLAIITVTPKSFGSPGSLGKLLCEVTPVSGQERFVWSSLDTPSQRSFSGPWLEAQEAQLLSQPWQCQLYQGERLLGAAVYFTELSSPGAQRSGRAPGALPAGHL
Nature of the experiment: flow cytometry, blockade of human LAG3-huFc (2 ug/ml) binding to MHC class II on Daudi cells. On the procedure: (§1) Mouse anti-human LAG3 clones were tested for their ability to block hLAG3 interaction with human MHC Class II. Daudi cells (ATCC #CCL-213) were used as a cell line positive for human MHC class II expression. Daudi cells were blocked with 10 ug/ml of goat IgG in HBSS and 2% BCS on ice for 30 minutes and 0.5×10⁶ cells/sample were aliquoted into a 96-well V-bottom plate and blocking buffer removed. […] Cells were pelleted by centrifugation at 1200 rpm and washed twice with HBSS/2% BCS. […] Cells were washed twice as described above, resuspended in HBSS/2% BCS and read on the FACSCalibur.
(In general: Flow cytometry measures light scatter and fluorescence of single cells or particles in a stream.)
The IC50 is the concentration that inhibits the measured activity by half. As to B1, the IC50 was determined as 1.9 nM.
On to B2, for which the IC50 was 2 nM.
Regarding B3, the IC50 is 2.8 nM.
On to B4, for which the IC50 turned out to be 2.1 nM.

The next experiment has as its target T2, human LAG3-huFc recombinant protein. The experiment is described as follows: flow cytometry, blockade of biotinylated human LAG3-huFc binding to MHC class II on Daudi cells, streptavidin-PE. As for the experimental part:
as §1, with “anti-human LAG3 and humanized anti-LAG3 clones were” for “anti-human LAG3 clones were”
On to B5, for which the IC50 was 2.6 nM.
Regarding B6, the IC50 was 2.5 nM.

A further experiment shares this target. The experiment is described as follows: flow cytometry, blockade of human LAG3-huFc binding to MHC class II on Daudi cells. As for the experimental part: as §1
In the case of B1, the IC50 was determined as 1.9 nM.
As to B2, the IC50 was determined as 2 nM.
On to B3, for which the IC50 was 2.8 nM.
The same measure, in the same setting: for B4 the value was 2.1 nM.

Another experiment concerns the target T3, Human LAG3-His: [VEGF leader]-LAG3_H-[His9G] (human, UniProt P18627 23-450).
T3 construct: also called human LAG3-His tagged recombinant protein; hLAG3-His
T3 sequence: T2 sequence
Nature of the experiment: SPR (Biacore T200), antibody captured on goat anti-mouse Fc, human LAG3-His as analyte, 1:1 Langmuir fit. As for the experimental part:
Mouse anti-human LAG3 clones listed above were injected over the immobilized goat anti-mouse surfaces at 1 ug/mL for a capture level of 40 RU. HBS-EP+ buffer (BR-1006-69) was used as the running buffer with a flow rate of 30 μL/min.
Varying concentrations of human LAG3-His protein ranging from 0.15 nM to 18.8 nM, at a flow rate of 40 μL/min were injected over the antibody surfaces.
Background subtraction binding sensorgrams were used for analyzing the rate constant of association (kₐ) and dissociation (kd), and the equilibrium dissociation constant KD. The resulting data sets were fitted with a 1:1 Langmuir Binding Model using the Biacore T200 evaluation software (version 2.0).
For orientation: SPR reads the build-up and loss of mass on a sensor chip optically.
What is called Kd is the concentration at which binding is half-saturated. By koff is commonly meant the rate constant with which the complex falls apart. A higher koff goes with a short-lived complex. What is called kon is a measure of how fast the partners come together. Read a low kon as slower complex formation. Regarding B1, binding was characterised by a dissociation constant (Kd) of 0.0903 nM, the koff amounted to 0.000113 s⁻¹ and the kon came out at 1.25e+06 M⁻¹ s⁻¹.
In the same order, the values of B2 are 1.47 nM, 0.00192 s⁻¹ and 1.31e+06 M⁻¹ s⁻¹.
In the same order, the values of B3 are 0.0147 nM, 0.000109 s⁻¹ and 7.43e+06 M⁻¹ s⁻¹.
In turn, B4 had a Kd of 0.00277 nM, a koff of 3.84e-05 s⁻¹ and a kon of 1.39e+07 M⁻¹ s⁻¹.

The target of another experiment is T1, human LAG3 (Lymphocyte Activation …). Nature of the experiment: cell based KinExA, BaF/3 cells transfected with human LAG3 (n=2). As for the experimental part: The affinities of the LAG3 antibodies for LAG3 were determined using a cell based Kinetic Exclusion Assay (KinExA). Cell based KinExA can be used to measure the affinity of a molecule for a binding partner on a cell surface (Rathanaswami et al. Analylitical Biochemistry 373(1): 52-60 (2008); Xie et al. J. Immunol. Methods 304 (1-2): 1-14 (2005)). In this case, BaF/3 cells were stably transfected with human and cynomolgus monkey LAG3 proteins. Transfected cells or the parental BaF/3 control cell line were grown to a density of 1.7×10⁶ to 3.2×10⁶ cells per ml at 37° C., 120 RPM, 5% CO₂, in 1X RPMI 1640 media with 10% FBS, 10 ng/ml IL-3, 5 μg/ml puromycin. Cells were concentrated, mixed with 15 pM or 150 pM antibody in cell culture media and incubated 24 to 48 hours at room temperature while rotating at 20 to 30 RPM. Cells were present at a top concentration of 2×10⁷ cells per ml (parental BaF/3 or cynomolgus LAG3 transfectants) or 1×10⁷ cells per ml (human LAG3 transfectants) and diluted in a 2-fold, 18 member series. The cells were pelleted and free antibody in the supernatant was measured using a KinExA 3200 instrument (Sapidyne, Id., USA). […] Antibody on the beads was labeled with 1.5 μg/ml Alexa Fluor® 647 conjugated goat anti-human (Fab′)₂ (Jackson ImmunoResearch Laboratories), washed and the fluorescent signal was read all using the KinExA™ 3200. The data from the 15 pM and 150 pM concentrations of each antibody were fit simultaneously using KinExA™ Pro n-Curve Analysis software version 4.0.11 (Sapidyne).
In the case of B5, binding was characterised by a dissociation constant (Kd) of 0.006 nM.
On to B6, for which binding was characterised by a dissociation constant (Kd) of 0.003 nM.
